A short description of series [1]: Stability of ApoE2 in conditioned culture medium (Western blot). In kind it is physicochemical. The settings on record: 37° C.; 48 hours. The protocol:
N=9. […] The original ApoE2-containing culture medium (lane 1), the ApoE2-containing culture medium after incubation with untransfected cells for 48 hours (lane 2), and the ApoE2-containing culture medium separately stored in a 37° C. incubator for 48 hours (lane 3). […] DAPI, nuclear marker. […] MAP2, marker of mature neurons; DAPI, nuclear marker.

Another series deals with 5×FAD mice. The experiment in a line: Distribution of neuronally expressed ApoE around amyloid plaques in 5×FAD mice (immunofluorescence). The class given is in vivo, mouse. The settings on record: lentiviral vectors. The protocol:
Mice were anesthetized with isoflurane and perfused with 4% PFA. Dissected mouse brains were fixed overnight in 4% PFA and cryoprotected overnight in 30% sucrose. A cryostat (Leica CM3050S) was used to obtain frozen brain slices ([…]) from fixed and cryoprotected mouse brains. Floating slices were washed 3 times with 1×PBS and then permeabilized with 0.5% Triton-X in 1×PBS for 30 minutes. After blocking with 5% BSA in 1×PBS at room temperature for 1 h, the slices were incubated overnight at 4° C. in 5% BSA (in 1×PBS) buffer comprising the primary antibody. Slices were washed 3 times with 1×PBS and incubated with secondary antibody diluted in 5% BSA (1×PBS) buffer for 1 hour at room temperature. Samples were then washed 3 times with 1×PBS and mounted with Prolong Gold Antifade Mountant (Life Technology).
After being deeply anesthetized with isoflurane, mice (5 weeks old) were placed in a stereotaxic apparatus (RWD Instruments). The zero point (x, y, z, 0, 0, 0) is Bregma. Lentivirus (lentivirus-GFP, lentivirus-ApoE and lentivirus-ApoE-IRES-GFP) and AAV (AAV2/9-hSyn-EGFP-WPRE-pA and AAV2/9-hSyn-ApoECT; purchased from Shanghai Taitool Bioscience Co. Ltd.) were injected into the cortex (x, y, z, +/−1.6, 0, −1) or hippocampus (x, y, z, +/−1.5, −2, −1.5), injected 1 ul on each injection site. The mice were then returned to their cages for rehabilitation after surgery.

Series [2] has as its system γ-secretase (PS1, PS2) knockout HEK 293T cells. The series is described as follows: PS1 KO, PS2 KO and PS1/2 dKO HEK 293T cell lines: α-CTF and Aβ40. In kind it is cell-based, human. The settings on record: PS1 and PS2 double knockout HEK 293T cells. The protocol: • a) A plasmid expressing the target protein in mammalian cells was constructed, and the protein expression promoter is CAG. • b) The target protein was expressed in HEK 293T cell line. Cells were subcultured one day before transfection, and transfection was performed when the degree of cell adhesion reached 70%-80%. The transfection reagent was lipofectamine2000 (ThermoFisher). • c) 4-6 hours post transfection, the medium were replaced with fresh cell culture medium. • d) 36-48 hours post transfection, the cells were lysed (10% 1M tris-HCl (pH=6.8), 4% SDS, 20% glycerol, 0.01% bromophenol blue), and the protein samples were collected and used for Western blot or stored in a −80° C. freezer. • e) Polyacrylamide gel electrophoresis. Before protein loading, the protein was boiled at 98° C. for 10 min, and then centrifuged at 12000 rpm for 10 min. Electrophoresis: 80V for the upper stacking gel; 120V for the lower separating gel. • f) Protein transfer. […]

On to “ApoE2: human apolipoprotein E2, full-length 299 amino acid residues, SEQ ID NO: 12”, for which the “stability in conditioned medium” value in series [1] is on record as “can exist stably”. Moreover, in the series on 5×FAD mice, the “accumulation around amyloid plaques” value is on record as “a similar distribution pattern was detected around amyloid plaques”. In addition, the “α-CTF in PS1/2 dKO cells” value in series [2] is on record as “did not further increase α-CTF levels”.

For the origin of these results see US20250108100A1, “C-TERMINAL FRAGMENT OF APOLIPOPROTEIN E AND APPLICATION THEREOF IN INHIBITING y-SECRETASE ACTIVITY” (SYNPHATEC (SHANGHAI) BIOPHARMACEUTICAL TECHNOLOGY CO., LTD., priority 2022, published 2025).
